B1: LINE1-mini (parent)
chain: GGCAGAGCUCAACACAGCGUGGCAAAGUGGCUGUGGCUAGACUGCC

Variants of: B1
Assay: self-cleavage, relative activity (ratio to wild type); higher = more cleavage; in vitro, sequencing; the parent is a self-cleaving ribozyme

Variant	self-cleavage
A6G G19U	0.15
A6G G19A	0.09
A6G G19C	0.05
A6C U9C	0.03
A6C U9A	0.18
A6C U9G	0.11
A6C U38C	0.21
A6C U38A	0.28
A6C U38G	0.02
A6G A39G	0.03
A6G A39U	0.08
A6G A39C	0.15
G5U G33C	0.06
G5U G33A	0.04
G5U G33U	0.05
A6U C15G	0.07
A6U C15U	0.92
A6U C15A	0.16
A6G C10G	0.02
A6G C10A	0.03
A6G C10U	0.04

Variant	self-cleavage
G5U U38A	0.08
G5U U38G	0.03
G5U U38C	0.05
A6G C13A	0.19
A6G C13G	0.13
A6G C13U	0.15
G5U G22U	0.18
G5U G22C	0.06
G5U G22A	0.16
A6G U38G	0.01
A6G U38A	0.06
A6G U38C	0.07
A6U A41U	0.09
A6U A41C	0.07
A6U A41G	2.27
A6U A25G	0.47
A6U A25C	0.65
A6U A25U	0.72
A6C G30C	0.2
A6C G30U	0.9
A6C G30A	1.01

Variant	self-cleavage
A6C A11G	0.02
A6C A11C	0.05
A6C A11U	0.1
G5U G44U	0.06
G5U G44C	0.06
G5U G44A	0.08
A6C A26G	0.65
A6C A26C	0.48
A6C A26U	0.77
A6C C18A	0.2
A6C C18U	1.1
A6C C18G	0.24
A6G A12G	0.03
A6G A12C	0.05
A6G A12U	0.09
A6G C18G	0.11
A6G C18A	0.11
A6G C18U	0.08
A6G G36C	0.09
A6G G36U	0.04
A6G G36A	0.13

Variant	self-cleavage
A6G A11U	0.02
A6G A11C	0.02
A6G A11G	0.02
A6U C8A	0.27
A6U C8U	0.29
A6U C8G	0.15
A6C C37U	0.12
A6C C37A	0.34
A6C C37G	0.03
A6G C31G	0.05
A6G C31A	0.07
A6G C31U	0.03
A6G C15A	0.05
A6G C15G	0.02
A6G C15U	0.17
A6G G29A	0.08
A6G G29U	0.09
A6G G29C	0.07
A6G G30C	0.13
A6G G30A	0.19
A6G G30U	0.13
